Measured values published in PMC6467748.

Target: mouse-derived mAb 735 (mo735) (mouse)
Assay: SPR

In the case of “chicken brain-derived polysialylated neural cell adhesion molecule (NCAM) (from UniProt P13590 20-711) (natural protein)”, the Kd is reported as 10.2 nM.
